Results taken from patent publication US20260185137A1 (University of Texas, published 2026).
Changes are numbered by the printed parent chain. Names and notes keep the numbering of the source.

B1: R1-I77R, RING domain construct of rhesus monkey TRIM5alpha with the I77R mutation (enzyme, UniProt Q0PF16 2-90, looked up)
chain: ASGILLNVKEEVTCPICLELLTEPLSLHCGHSFCQACITANHKKSMLYKEGERSCPVCRISYQPENIQPNRHVANRVEKLREVKLSPEE
notes: range 2-90; Tags were removed by TEV protease
B2: R1-WT, monomeric RING domain construct of rhesus monkey TRIM5alpha (enzyme, UniProt Q0PF16 2-90, looked up)
chain: B1 chain with R76I
notes: range 2-90; Expressed with N-terminal 6His-GB1-TEV tags that were removed by TEV protease; also called isolated RING monomer

Key:
[1] = target: the molecule itself; experiment: 15N-TROSY HSQC NMR (self-association of the RING domain); sample concentration is not printed on the sheet
Method: NMR spectroscopy. All NMR experiments were performed in 50 mM Sodium Phosphate (pH 7.5), 150 mM NaCl, 1 mM TCEP, 10% (v/v) D₂O, 0.04% (w/v) NaN₃, and the data collected at 298K on a Bruker Avance 700-MHz spectrometer equipped with a cryoprobe. Backbone assignments were carried out using standard TROSY triple resonance NMR experiments (HNCO, HN(CA)CO, HN(CO)CA, HNCA, HNCACB, and HN(CO)CACB). Protein concentrations for each experiment are shown in the corresponding figures or noted in figure legends. The NMR data were processed using NMRPipe and spectra evaluated using NMRFAM-Sparky.

[2] = target: the molecule itself; experiment: sedimentation equilibrium analytical ultracentrifugation, monomer-dimer self-association model
Method: Analytical Ultracentrifugation. Sedimentation velocity experiments were performed with a Beckman Optima XL-I analytical ultracentrifuge (Beckman Coulter, Indianapolis, IN) equipped with a 4-hole AnTi-60 rotor and 2-channel centerpiece cells. Samples were in a buffer containing 50 mM Tris (pH 7.5), 150 mM NaCl, and 1 mM TCEP. Sedimentation velocity experiments were carried out at 20° C. and data collection performed in the intensity mode at 280 nm. […] All c(S) distributions were calculated with fitted frictional ratios (f/f₀) and meniscus positions were all fitted with a maximum entropy regularization cutoff of 0.95. Sedimentation equilibrium experiments were carried out using six-channel centerpieces, each chamber containing 110 μL samples. Equilibrium experiments were conducted at 20° C. and collection of data performed in the intensity mode at 280 nm and 230 nm. […] Equilibrium distributions were fitted to a monomer-dimer self-association model.

| Protein | binding result [1] | Kd [2] |
| --- | --- | --- |
| B1 | no binding | – |
| B2 | – | ~60 µM |
